T1: AttoOxa11-modified L6-NTD mutant Q50C (Euprosthenops australis, AttoOxa11 (maleimide derivative) on the thiol of the engineered cysteine at position 50)
T1 chain: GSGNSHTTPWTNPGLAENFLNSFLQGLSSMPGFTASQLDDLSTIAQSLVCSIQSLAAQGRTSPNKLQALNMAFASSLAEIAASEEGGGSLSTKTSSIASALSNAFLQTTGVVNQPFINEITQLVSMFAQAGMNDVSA

T2: wild-type N-terminal domain of major ampullate spidroin 1 (MaSp1) from Euprosthenops australis (Euprosthenops australis), Q05H60
T2 chain: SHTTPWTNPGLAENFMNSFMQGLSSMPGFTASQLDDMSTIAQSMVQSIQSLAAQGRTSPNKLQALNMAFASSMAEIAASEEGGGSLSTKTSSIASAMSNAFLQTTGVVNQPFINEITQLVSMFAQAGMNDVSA


How the values were obtained:
[1] = target: the molecule itself; assay: SEC; high-resolution SEC with Trp fluorescence detection, Superdex-75 Increase 10/300, 0.8 ml/min, 20 mM MES, pH 6.0, ionic strength 20 mM (KCl); elution volume against protein concentration fitted to a monomer/dimer equilibrium; dimer to monomers
[2] = target: T1, AttoOxa11-modified L6-NTD mutant Q50C; assay: MST; 40 nM AttoOxa11-modified L6-NTD Q50C with increasing concentrations of unlabelled L6-NTD, standard untreated capillaries, 50% heating power; bimolecular binding isotherm (pseudo-dimerization); details: both partners purified
[3] = target: T2, wild-type N-terminal domain of major …; assay: SEC-MALS; 20 mM MES, pH 6.0, ionic strength 60 mM (KCl), dimer conditions; µM sample concentration; dimer to monomers; details: remark: other sources report otherwise

Binder | Kd [1] [µM] | Kd [2] [µM] | stoichiometry N [3]
L6-NTD (MaSp1 NTD from E. australis with all six core Met mutated to Leu) (domain or fragment) GSGNSHTTPWTNPGLAENFLNSFLQGLSSMPGFTASQLDDLSTIAQSLVQSIQSLAAQGRTSPNKLQALNMAFASSLAEIAASEEGGGSLSTKTSSIASALSNAFLQTTGVVNQPFINEITQLVSMFAQAGMNDVSA | 1.1 | 3.6 ± 1.8 | –
wild-type N-terminal domain of major ampullate spidroin 1 (MaSp1) from Euprosthenops australis, Q05H60 24-156 (domain or fragment) SHTTPWTNPGLAENFMNSFMQGLSSMPGFTASQLDDMSTIAQSMVQSIQSLAAQGRTSPNKLQALNMAFASSMAEIAASEEGGGSLSTKTSSIASAMSNAFLQTTGVVNQPFINEITQLVSMFAQAGMNDVSA | – | – | 2
